Ends that are not written are not given here.

The target of experiment [1] is human full-length KRS T52D, His-tagged (human, UniProt Q15046 1-597, T52D). Description: AlphaScreen or HTRF. A general note: Bead proximity is the source of the signal in Alpha formats.
The target of experiment [2] is human full-length KRS WT, His-tagged (human, UniProt Q15046 1-597). Nature of the experiment: AlphaScreen or HTRF.
Chain of human full-length KRS WT, His-tagged (Q15046 whole entry): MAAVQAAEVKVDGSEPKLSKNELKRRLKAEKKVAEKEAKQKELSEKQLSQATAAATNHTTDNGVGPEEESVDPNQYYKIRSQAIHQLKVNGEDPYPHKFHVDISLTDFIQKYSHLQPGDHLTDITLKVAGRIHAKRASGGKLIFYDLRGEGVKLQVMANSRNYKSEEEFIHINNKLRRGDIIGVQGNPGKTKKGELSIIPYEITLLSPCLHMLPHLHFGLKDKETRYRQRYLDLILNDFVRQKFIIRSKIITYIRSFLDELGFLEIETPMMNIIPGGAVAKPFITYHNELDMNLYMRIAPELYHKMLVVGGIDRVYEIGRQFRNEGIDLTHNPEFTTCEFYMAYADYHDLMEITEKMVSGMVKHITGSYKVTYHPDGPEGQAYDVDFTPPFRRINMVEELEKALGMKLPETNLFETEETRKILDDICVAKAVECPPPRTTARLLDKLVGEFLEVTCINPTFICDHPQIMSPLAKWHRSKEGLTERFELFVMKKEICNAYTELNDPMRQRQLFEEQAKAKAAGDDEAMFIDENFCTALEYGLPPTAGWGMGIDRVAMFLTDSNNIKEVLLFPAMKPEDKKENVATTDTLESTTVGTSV

Chain of human full-length KRS T52D, His-tagged (Q15046 whole entry T52D): as the sequence (Q15046 whole entry) above, with T52D counted along it

B1: AIMP2_(1–48)-TRX-Biotin (domain or fragment, human, UniProt Q13155 1-48, looked up)
chain: MPMYQVKPYHGGGAPLRVELPTCMYRLPNVHGRSYGPAPGAGHVQEES-{TRX}
modifications: also: biotin via EZ-Link-NHS-PEG12-Biotin, places not given here
Regarding B1, in experiment [1], the affinity, expressed as Kd, was 333 nM. Besides, the binding result in experiment [2] is listed as “binds”.

Usually Kd stands for the concentration at which binding is half-saturated. The low end stands for a tighter complex, the high end for a looser complex.
